Measured values from patent publication US20090124555A1, “USE OF HISTOGRANIN AND HISTOGRANIN-LIKE COMPOUNDS AS INHIBITORS OF P2X7 RECEPTOR FUNCTION AND AS ANTI-ARTHRITIC AGENTS” (priority 2005, published 2009).
“Also recorded” adds a separate entry of the source.

How the values were obtained:
P2X7 receptor [1] = molecular target: T1, P2X7 receptor (Mus musculus, UniProt Q9Z1M0); experiment: ATP-induced extracellular release of IL-1.beta, IL-1.alpha and IL-6 in vivo (peritoneal lavage of LPS-primed mice); conditions: 0.1 mg and 0.3 mg i.p. 15 min before ATP, FIG. 6B
T1 construct: from tissue; host or cells: living mice; peritoneal cavity (lavage fluid analysed)
T1 sequence (Q9Z1M0 1-595): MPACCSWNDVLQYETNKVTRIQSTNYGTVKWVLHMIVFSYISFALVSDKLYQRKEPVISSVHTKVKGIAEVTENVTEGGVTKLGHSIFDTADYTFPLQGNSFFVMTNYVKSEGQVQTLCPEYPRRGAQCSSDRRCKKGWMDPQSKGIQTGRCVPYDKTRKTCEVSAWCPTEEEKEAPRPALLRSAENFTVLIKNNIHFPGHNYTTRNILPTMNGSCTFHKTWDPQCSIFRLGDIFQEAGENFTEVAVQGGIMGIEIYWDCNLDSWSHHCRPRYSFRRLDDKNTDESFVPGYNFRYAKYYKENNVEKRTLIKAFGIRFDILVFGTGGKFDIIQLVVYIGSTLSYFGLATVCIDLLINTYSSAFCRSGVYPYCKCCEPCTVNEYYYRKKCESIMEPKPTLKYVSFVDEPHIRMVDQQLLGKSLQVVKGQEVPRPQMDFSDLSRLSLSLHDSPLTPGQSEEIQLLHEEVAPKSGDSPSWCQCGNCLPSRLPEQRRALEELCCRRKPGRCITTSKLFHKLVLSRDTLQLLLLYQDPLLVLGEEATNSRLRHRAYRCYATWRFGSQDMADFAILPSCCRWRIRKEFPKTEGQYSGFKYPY
Description: Groups of mice were injected intraperitoneally (i.p.) with 50 μg of LPS. Two hours after this LPS injection, mice were injected i.p. with either PBS or ATP (5 mM, adjusted to pH 7), or with HN compounds (0.1 mg and 0.3 mg) 15 minutes before ATP injection. Mice were sacrificed 30 minutes (IL-1.beta and IL-1.alpha) or 120 minutes (IL-6) after the ATP or PBS injection and peritoneal cavities were lavaged each with 3 ml PBS. Samples of peritoneal lavages were centrifuged, cell-free supernatants were collected and tested for the presence of IL-1.beta, IL-1.alpha and IL-6 using ELISA (R&D Systems, Minneapolis, Minn., and Biosource, Camarillo, Calif., respectively).

[2] = tested on: DBA/1 mice with collagen-induced arthritis; experiment: Collagen-induced arthritis (CIA) in mice, clinical and histologic scoring; assay type: in vivo; conditions: 0.3 mg i.p. daily before LPS and onset
Description: For induction of arthritis, DBA/1 mice (The Jackson Laboratory, Bar Harbor, Me.) were immunized intradermally at the base of the tail with bovine type II collagen (100 μg; Chondrex, Richmond, Wash.) emulsified in Freund's complete adjuvant (Chondrex, Richmond, Wash.). On day 21, the animals were boosted with an intradermal injection of 100 μg type II collagen. To synchronize the onset of arthritis, mice were subsequently injected i.p. with LPS (50 μg) (Yoshino et al. (2000) J. Immunol. 163:3417-3422).
To test the subject of the present invention, mice were divided in various groups: mice injected with saline (negative control), mice injected with collagen and LPS (positive control), mice injected with collagen and treated i.p. daily with HN compound starting 2 days before i.p. injection of LPS and onset of arthritis, and mice injected with collagen and LPS, and treated i.p. daily with RN compound after the onset of arthritis as monitored by the presence of a positive clinical score index as described below.
The incidence of arthritis was monitored daily by macroscopic clinical scoring on a 0-3 scale where 0=normal: 1=slight swelling and erythema. […] Limb swelling was also measured with calipers (Wallace et al. (1999) J. Immunol. 162:5547-5555). […] Cartilage destruction was evaluated as the extent of loss of glycosaminoglycan matrix, death of chondrocytes, thinning and destruction. […]

P2X7 receptor [3] = molecular target: T2, P2X7 receptor (Rattus norvegicus, UniProt Q64663); experiment: ATP-induced membrane permeabilization and pore formation (ethidium bromide uptake) in alveolar macrophages; assay type: cell-based; conditions: rat alveolar macrophages, FIG. 1A
T2 construct: Alveolar macrophages (AM) were recovered from normal rats by bronchoalveolar lavage; endogenous in cells; host or cells: primary alveolar macrophages from male Wistar rats (bronchoalveolar lavage)
T2 sequence (Q64663 1-595): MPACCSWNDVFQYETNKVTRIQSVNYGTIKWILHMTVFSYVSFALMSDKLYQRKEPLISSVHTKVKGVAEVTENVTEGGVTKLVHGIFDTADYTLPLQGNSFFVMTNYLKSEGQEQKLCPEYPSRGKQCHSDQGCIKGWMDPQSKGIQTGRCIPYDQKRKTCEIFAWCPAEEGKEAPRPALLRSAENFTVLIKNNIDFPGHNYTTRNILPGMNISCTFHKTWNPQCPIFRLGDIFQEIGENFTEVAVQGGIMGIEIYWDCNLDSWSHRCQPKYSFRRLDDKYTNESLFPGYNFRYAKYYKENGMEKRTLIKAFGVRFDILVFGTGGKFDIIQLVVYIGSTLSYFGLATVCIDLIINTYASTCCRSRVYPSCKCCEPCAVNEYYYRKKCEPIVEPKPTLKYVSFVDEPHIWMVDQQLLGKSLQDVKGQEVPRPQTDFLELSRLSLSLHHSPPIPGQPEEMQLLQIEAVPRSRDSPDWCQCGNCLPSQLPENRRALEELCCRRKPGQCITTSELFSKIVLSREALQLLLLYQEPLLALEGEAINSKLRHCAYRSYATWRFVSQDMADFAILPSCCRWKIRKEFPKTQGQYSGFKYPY
Description: Alveolar macrophages (AM) were recovered from normal rats by bronchoalveolar lavage (BAL) as described previously (Lemaire (1991) Am. J. Pathol. 138:487-495). The lungs were lavaged with 7 ml-aliquots of sterile phosphate buffered saline (pH 7.4; Wisent, St. Bruno, QC), and BAL cells were obtained by centrifugation at 200×g at 4° C. for 5 minutes. The cells were resuspended in RPMI 1640 medium (Wisent, St-Bruno, QC) supplemented with 0.5% dialysed fetal bovine serum (Wisent. St-Bruno, QC), 0.005% gentamycin (Schering Canada Inc. Pointe Claire. QC) and 0.8% HEPES (Sigma Chemical Co., St-Louis, MO) which will henceforth be referred to as complete culture medium (CM).
Freshly isolated AM (1×10^5) were incubated in 200 μl complete medium in 96 wells tissue culture plates for 24 h. Following centrifugation, medium was replaced with saline solution containing 125 mM NaCl, 5 mM KCL, 1 mM MgSO4, 1 mM Na2HPO4, 5.5 mM glucose, 5 mM NaHCO3, 1 mM CaCl2 and 20 mM Hepes, pH 7.6. Ethidium bromide was added to a final concentration of 20 μM and AM were stimulated with ATP (5 mM, Sigma), 3′-O-(4-benzoylbenzoyl ATP (BzATP) (0.5 mM, Molecular Probes) or uridine 5′-triphosphate (UTP) (Sigma), at 37° C. for 5 minutes. In some experiments, cells were pre-treated with oxidized ATP (oATP, 0.1 mM, Sigma) for 2 h or Brilliant Blue G (BBG, 5×10^−9M, Sigma) for 5 minutes, or HN compounds for 5 minutes before ATP stimulation. After ATP stimulation, the plate was centrifuged (200×g, 1 minute), culture supernatants were replaced with fresh buffer and the fluorescence was analyzed using a Zeiss Axiovert S1100 TV inverted microscope equipped with a rhodamine filter and a 32× objective. Images were captured and analysed with the Northern Eclipse image analysis software. Data are expressed as percentage of cells that become permeabilized to ethidium bromide.

P2X7 receptor [4] = molecular target: T1, P2X7 receptor; experiment: P2X7 receptor-stimulated IL-1.beta release ex vivo, blood-based IL-1.beta assay in CIA mice; conditions: blood of i.p. treated CIA mice, FIG. 12C
Description: P2X7 receptor-stimulated IL-1 release ex vivo was performed with a blood-based IL-1.beta assay (Perregaux et al. (2000) J. Immunol. 165:4615-4623). Blood was collected from mice in each group in heparin-containing tubes. A total of 120 μl of blood was placed into an individual well of a 96-well plate and diluted with 120 μl RPMI 1640 medium containing 25 mM HEPES and 1% dialysed FBS. The diluted blood samples were incubated for 3 h in the presence and absence of LPS (1 μg/ml) at 37° C. in 5% CO2. ATP (5 mM, pH 7) was then added as a secretion stimulus and the mixtures were incubated at 37° C. for an additional 2 h. The 96-well plates were then centrifuged at 700×g for 10 min at 4° C., and the resulting plasma samples were collected and assayed for their IL-1.beta content by ELISA (R&D Systems, Minneapolis, Minn.).

N=C(N)NCCC[C@H](Nc1ccccc1NC(=O)Cc1ccc(O)cc1)C(N)=O [C-11, N-5-guanidinopentanamide-(2S)-yl-2-N (p-hydroxyphenylacetyl)phenylenediamine]
IL-1.beta in peritoneal lavage in response to ATP, various HN compounds (P2X7 receptor [1]): inactive; also recorded: did not inhibit | arthritis score index ([2]; FIG. 12A): did not reduce | histological score index ([2]; both knees, FIG. 12B): did not reduce

cyclic (-Gly-Ala-Tyr-D-Arg-) (GAYR; HELM PEPTIDE1{G.A.Y.[dR]}$PEPTIDE1,PEPTIDE1,1:R1-4:R2$$$V2.0; SMILES C[C@@H]1NC(=O)CNC(=O)[C@@H](CCCNC(=N)N)NC(=O)[C@H](Cc2ccc(O)cc2)NC1=O) [C-9]
inhibition of ATP-induced pore formation (ethidium bromide uptake) (P2X7 receptor [3]; ATP 5 mM, 5 min, compound 10^−9M): inhibited significantly | inhibition of BzATP-induced pore formation (P2X7 receptor [3]; BzATP 0.5 mM): inhibit | IL-1.beta in peritoneal lavage in response to ATP, various HN compounds (P2X7 receptor [1]): reduced levels | ATP-induced IL-1.beta release in peripheral blood (P2X7 receptor [4]; ATP without LPS ex vivo): inhibit | LPS+ATP-induced IL-1.beta release in peripheral blood (P2X7 receptor [4]; LPS 3 h then ATP 2 h ex vivo): inhibit
